The values below come from paper PMC4971460.

This test has as its target MBP-GS fusion construct Δ2 (not stated | E. coli) [MBP: P0AEX9]. As to the kind of experiment: cryo-EM structure.

The term stoichiometry N denotes the number of molecules, sites or subunits per partner or assembly.

“MBP-GS fusion construct Δ2 (from UniProt P0AEX9 27-396; P0A9C5 3-469)” had a stoichiometry N of 12.
